Experiment [1] deals with recombinant stabilized trimeric prefusion ectodomain of the SARS-CoV-2 S protein (S6P_(ecto)) (SARS-CoV-2, UniProt P0DTC2).
Experiment [2] has as its target S protein C-terminal S2 region expressed on HEK293T cells (SARS-CoV-2, Wuhan-Hu-1, UniProt P0DTC2). The experiment in a line: flow cytometry on cells. Background: A flow cytometer gives signals particle by particle.
Experiment [3] deals with SARS-CoV-2 RBD (SARS-CoV-2, Wuhan-Hu-1 (assumed), UniProt P0DTC2). The experiment in a line: ELISA. (In an ELISA, binding on a coated surface is turned into a signal by an enzyme label.)

Substitutions are numbered along the chain they refer to.

B1: COV2-2164 (antibody, V domains shown)
VH: QVQLVQSGAEVKKPGSSVKVSCKASGGTFSSYAISWVRQAPGQGLEWMGGIIPIFGTANYAQKFQGRVTITADESTSTGYMQLSSLRFEDTAVYYCARTSHYDSSGSYFEYWGQGTLVTVSS
VL: EIVLTQSPATLSLSPGERATLSCRASQSVSSYLAWYQQKPGQAPRLLIYDASNRATGIPARFSGSGSGTDFTLTISSLEPEDFAVYYCHKRSNWPPSLTFGGGTKVEIK
For B1, the binding result in experiment [1] is given as “binds”.

B2: CnC2t1p1_B10 (antibody, V domains shown)
VH: B1 VH with E74K, G79A, Q82E, F88S, T99V, H101G, S107Y, Y108W, F109G, E110D
VL: B1 VL with H89Q, K90Q, S97A
Consider B2, for which, in experiment [2], the binding result is reported as “binds”.

B3: COV2-2002 (antibody, V domains shown)
VH: EVQLVESGGGLVQPGGSLRLSCAASGFTFSFYWMSWVRQAPGKGLEWVANIKQDGSEKYYVDSVKGRSTISRDNAKNSLYLQMNSLRAEDTAVYYCARVGSSSWYFDYWGQGTLVTVSS
VL: not shown
As for B3, the binding result in experiment [2] is given as “binds”.

B4: COV2-2333 (antibody, V domains shown)
VH: B3 VH with F31I, E46Q, G55A, S68F, V99L, S101G, Y105H
VL: SYELTQPPSVSVSPGQTASITCSGDKLGDKYSSWYQQKPGQSPVLVIYEDTKRPSGIPERFSGSNSGNTATLTISGTQAMDEADYYCQAWSSSTAVFGGGTKLTVL
With B4, the binding result in experiment [2] is listed as “binds”.

B5: COV2-2531 (antibody, V domains shown)
VH: QVQLQESGPGLVKPSETLSLTCSVSGGSIRSYFWNWVRQPPGKGLEWIGYIYYSGSTNYKPSFKSRVTISLDTSKNQISLKLSSVTAADTAVYYCARATWLRDAFGIWGQGTMVTVSS
VL: NFMLTQPHSVSESPGKTVTISCTGNSGSIASNYVQWYQQRPGSAPTTVIYEDSQRPSGVPDRFSGSIDSSSNSASLTISGLKTEDEADYYCQSFDSGNVVFGGGTKLTVL
As for B5, the binding result in experiment [3] is listed as “binds”.

B6: C126 (antibody, V domains shown)
VH: QVQLQESGPGLVKPSETLSLSCAVSGGSIGSYFWSWIRQPPGKGLEWIGYLHYSGSTNYNPSLKSRVTISVDTSKNQFSLKLSSVTAADTAVYYCARLQWLRGAFDIWGQGTMVTVSS
VL: B5 VL with N25S, Y50N, S53N, F94Y, G97S, V99L
In the case of B6, the binding result in experiment [3] is on record as “binds”.

B7: group 3 germline revertant (antibody, V domains shown)
VH: B5 VH with S23T, R30S, F33Y, N35S, V37I, K60N, F63L, L71V, I78F
VL: B5 VL with N25S, S53N, F94Y, G97S
As to B7, the binding result in experiment [3] is listed as “binds”.
